Our source for the binding result and Kd values is doi:10.1101/219642 (bioRxiv, 2017).

In assay [1] the target is ubiquitin on ubiquitin-coated agarose beads (UniProt P0CG47 1-76, coupled to agarose beads). The assay is described as follows: pull-down.
In assay [2] the target is Purified bovine ubiquitin (bovine, UniProt P0CG53 1-76). The assay is described as follows: SPR. A general note: SPR reads the build-up and loss of mass on a sensor chip optically.

B1: GST fusion protein of the constitutively open mutant of the cytoplasmic region of Stx3 (L165A/E166A) (domain or fragment)
chain: MKDRLEQLKAKQLTQDDDTDEVEIAIDNTAFMDEFFSEIEETRLNIDKISEHVEEAKKLYSIILSAPIPEPKTKDDLEQLTTEIKKRANNVRNKLKSMEKHIEEDEVRSSADLRIRKSQHSVLSRKFVEVMTKYNEAQVDFRERSKGRIQRQLEITGKKTTDEEAAEMLESGNPAIFTSGIIDSQISKQALSEIEGRHKDIVRLESSIKELHDMFMDIAMLVENQGEMLDNIELNVMHTVDHVEKARDETKRAMKYQGQARKKLI
Take B1: in assay [1], the binding result is recorded as “binds”.

B2: GST fusion protein containing only the Habc domain (1-146) of Stx3 (domain or fragment)
chain: MKDRLEQLKAKQLTQDDDTDEVEIAIDNTAFMDEFFSEIEETRLNIDKISEHVEEAKKLYSIILSAPIPEPKTKDDLEQLTTEIKKRANNVRNKLKSMEKHIEEDEVRSSADLRIRKSQHSVLSRKFVEVMTKYNEAQVDFRERSK
With B2, in assay [2], the Kd (as a rule, a measure of binding affinity in units of concentration) is 1.36 mM. For the same molecule, in assay [1], the binding result is given as “binds”.
